Assay results: patent US20130034559A1 (AstraZeneca / MedImmune, published 2013)

Legend:
[1] = molecular target: T1, extracellular domain of human CD28 (R&D Systems, 342-CD) (human, UniProt P10747 19-152); test: ELISA, biotinylated IgG1-TM on coated ECD
T1 construct: extracellular domain; Bought
Experimental: (§1) ELISAs were performed to determine the cross-reactivity of the anti-B7-H1 IgG1-TM antibodies for other immune co-modulatory molecules. […] Murine cross reactivity was also investigated by coating the ECD of murine B7-H1 (R&D Systems, 1019-B7). Biotinylated anti-B7-H1 IgG1-TM diluted at 100 nM in PBS containing 3% dried milk powder, were incubated at room temperature for 2 h to allow binding. Bound biotinylated IgGs were detected with europium N1-labelled streptavidin (Perkin Elmer, 1244-360) at 0.2 ug/mL. […] Primary antibodies were incubated at 5 ug/mL in PBS containing 3% dried milk powder for 2 h at room temperature. Detection was carried out by incubating the secondary antibody anti-mouse IgG Peroxidase conjugate (Sigma, A2554) or anti-rat IgG Peroxidase conjugate (Sigma, A5795) diluted 1:5000 in PBS containing 3% dried milk powder for 1 h at room temperature and subsequent addition of TMB (Sigma, T0440). […] Non-specific binding was determined using wells coated with the IgG1 isotype control at 5 ug/mL. Cross reactivities were calculated at a percent of the specific binding to the antigen relative to human B7-H1.

[2] = molecular target: T2, human PD-1/Fc protein (R&D Systems, catalog #1086-PD) (human, UniProt Q15116 25-170); test: ELISA, biotinylated IgG1-TM on coated ECD
T2 construct: extracellular domain; Bought; not shown: Fc portion
Experimental: as §1

[3] = molecular target: T3, extracellular domain of human B7-H2 (R&D Systems, 165-B7) (human, UniProt O75144 19-256); test: ELISA, biotinylated IgG1-TM on coated ECD
T3 construct: extracellular domain; Bought
T3 sequence (looked up): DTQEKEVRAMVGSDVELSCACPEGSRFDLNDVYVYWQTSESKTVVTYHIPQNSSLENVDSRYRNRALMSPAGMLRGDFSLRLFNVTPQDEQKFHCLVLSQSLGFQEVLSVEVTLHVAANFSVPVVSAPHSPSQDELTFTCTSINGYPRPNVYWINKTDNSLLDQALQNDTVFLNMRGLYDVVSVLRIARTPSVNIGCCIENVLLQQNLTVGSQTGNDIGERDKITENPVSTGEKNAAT
Experimental: as §1

[4] = molecular target: T4, extracellular domain of human PD-L2 (R&D Systems, 1224-PL) (human, UniProt Q9BQ51 20-220); test: ELISA, biotinylated IgG1-TM on coated ECD
T4 construct: extracellular domain; Bought
T4 sequence (looked up): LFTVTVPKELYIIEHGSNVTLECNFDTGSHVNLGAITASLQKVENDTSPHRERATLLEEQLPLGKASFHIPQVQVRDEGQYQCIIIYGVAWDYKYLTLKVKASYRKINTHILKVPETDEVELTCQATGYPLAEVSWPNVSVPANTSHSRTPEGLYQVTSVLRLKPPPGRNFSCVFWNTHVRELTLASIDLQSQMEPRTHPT
Experimental: as §1

[5] = molecular target: T5, extracellular domain of human CTLA-4 (R&D Systems, 325-CT) (human, UniProt P16410 36-161); test: ELISA, biotinylated IgG1-TM on coated ECD
T5 construct: extracellular domain; Bought
T5 sequence (looked up): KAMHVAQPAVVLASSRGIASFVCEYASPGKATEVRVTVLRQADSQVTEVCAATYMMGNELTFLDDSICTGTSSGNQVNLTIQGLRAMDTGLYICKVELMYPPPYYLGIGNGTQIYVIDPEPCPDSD
Experimental: as §1

[6] = molecular target: T6, B7H1_F19G (human, UniProt Q9NZQ7 19-238); test: HTRF competition: untagged B7-H1 sample against HIS FLAG tagged human B7-H1 for labelled antibody
T6 construct: range 19-238; also called human B7-H1 extracellular domain mutant F19G
Experimental: (§2) The HTRF® competition assays measured the binding of anti-B7-H1 antibody to HIS FLAG tagged B7-H1. Titration of non tagged B7-H1 samples, prepared as described above, will compete with HIS FLAG tagged B7-H1 for binding to anti-B7-H1 antibody, leading to a reduction in assay signal. […] 10 μl of B7-H1 sample was added to a 384 well low volume assay plate (Corning 3673). […] Assay plates were incubated for 4 hours at room temperature prior to reading time resolved fluorescence at 620 nm and 665 nm emission wavelengths using an EnVision plate reader (Perkin Elmer).

[7] = molecular target: T7, B7H1_R113Y (human, UniProt Q9NZQ7 19-238); test: as above
T7 construct: range 19-238; also called human B7-H1 extracellular domain mutant R113Y
Experimental: as §2

[8] = molecular target: T8, B7H1_F19A (human, UniProt Q9NZQ7 19-238); test: as above
T8 construct: range 19-238; also called human B7-H1 extracellular domain mutant F19A
Experimental: as §2

[9] = molecular target: T9, B7H1_T20V (human, UniProt Q9NZQ7 19-238); test: as above
T9 construct: range 19-238; also called human B7-H1 extracellular domain mutant T20V
Experimental: as §2

[10] = molecular target: T10, B7H1_T20D (human, UniProt Q9NZQ7 19-238); test: as above
T10 construct: range 19-238; also called human B7-H1 extracellular domain mutant T20D
Experimental: as §2

[11] = molecular target: T11, B7H1_R113L (human, UniProt Q9NZQ7 19-238); test: as above
T11 construct: range 19-238; also called human B7-H1 extracellular domain mutant R113L
Experimental: as §2

[12] = molecular target: T12, B7H1_F19S (human, UniProt Q9NZQ7 19-238); test: as above
T12 construct: range 19-238; also called human B7-H1 extracellular domain mutant F19S
Experimental: as §2

[13] = molecular target: T13, B7H1_D122E (human, UniProt Q9NZQ7 19-238); test: as above
T13 construct: range 19-238; also called B7H1 D122E mutant
Experimental: as §2

[14] = molecular target: T14, B7H1_T20A (human, UniProt Q9NZQ7 19-238); test: as above
T14 construct: range 19-238; also called human B7-H1 extracellular domain mutant T20A
Experimental: as §2

T7 sequence (Q9NZQ7 19-238 R113Y limits assumed): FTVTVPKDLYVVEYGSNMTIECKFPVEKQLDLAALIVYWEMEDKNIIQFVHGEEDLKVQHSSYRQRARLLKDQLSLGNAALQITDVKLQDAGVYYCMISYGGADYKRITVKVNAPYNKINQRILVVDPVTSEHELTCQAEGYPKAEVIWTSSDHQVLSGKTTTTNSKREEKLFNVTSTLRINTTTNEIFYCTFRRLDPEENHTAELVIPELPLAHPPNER
T14 sequence (Q9NZQ7 19-238 T20A limits assumed): as the sequence (Q9NZQ7 19-238 R113Y limits assumed) above, with T2A, Y95R counted along it
T1 sequence (P10747 19-152): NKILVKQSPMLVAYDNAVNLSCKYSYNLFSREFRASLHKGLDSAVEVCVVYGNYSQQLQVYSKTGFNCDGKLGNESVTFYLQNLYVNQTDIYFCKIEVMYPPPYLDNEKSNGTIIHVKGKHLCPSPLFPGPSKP
T8 sequence (Q9NZQ7 19-238 F19A limits assumed): as the sequence (Q9NZQ7 19-238 R113Y limits assumed) above, with F1A, Y95R counted along it
T12 sequence (Q9NZQ7 19-238 F19S limits assumed): as the sequence (Q9NZQ7 19-238 R113Y limits assumed) above, with F1S, Y95R counted along it
T6 sequence (Q9NZQ7 19-238 F19G limits assumed): as the sequence (Q9NZQ7 19-238 R113Y limits assumed) above, with F1G, Y95R counted along it
T9 sequence (Q9NZQ7 19-238 T20V limits assumed): as the sequence (Q9NZQ7 19-238 R113Y limits assumed) above, with T2V, Y95R counted along it
T11 sequence (Q9NZQ7 19-238 R113L limits assumed): as the sequence (Q9NZQ7 19-238 R113Y limits assumed) above, with Y95L counted along it
T2 sequence (Q15116 25-170): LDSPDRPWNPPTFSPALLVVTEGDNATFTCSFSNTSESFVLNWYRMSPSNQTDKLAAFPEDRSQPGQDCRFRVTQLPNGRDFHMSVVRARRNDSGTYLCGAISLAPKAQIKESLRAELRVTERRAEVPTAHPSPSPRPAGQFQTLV
T10 sequence (Q9NZQ7 19-238 T20D limits assumed): as the sequence (Q9NZQ7 19-238 R113Y limits assumed) above, with T2D, Y95R counted along it
T13 sequence (Q9NZQ7 19-238 D122E limits assumed): as the sequence (Q9NZQ7 19-238 R113Y limits assumed) above, with Y95R, D104E counted along it

B1: 2.7A4OPT (antibody, V domains shown)
VH: EVQLVESGGGLVKPGGSLRLSCAASGFTFSTYSMNWVRQAPGKGLEWVSSISSSGDYIYYADSVKGRFTISRDNAKNSLYLQMNSLRAEDTAVYYCARDLVTSMVAFDYWGQGTLVTVSS
VL: SYELTQPPSVSVSPGQTARITCSGDALPQKYVFWYQQKSGQAPVLVIYEDSKRPSGIPERFSGSSSGTMATLTISGAQVEDEADYYCYSTDRSGNHRVFGGGTKLTVL
notes: Germlined variable domains; human IgG1-TM (L234F, L235E, P331S), lambda; also called 2.7A4OPT IgG1-TM
- binding result [1]: no binding (tested: 100 nM)
- binding result [2]: no binding (tested: 100 nM)
- binding result [3]: no binding (tested: 100 nM)
- binding result [4]: no binding (tested: 100 nM)
- binding result [5]: no binding (tested: 100 nM)
- binding result [6]: no binding
- binding result [7]: no binding
- binding result [8]: no binding
- binding result [9]: no binding
- binding result [10]: no binding
- binding result [11]: no binding
- binding result [12]: no binding
- binding result [13]: no binding
- binding result [14]: no binding
